In paper PMC10776994, “The SDS22:PP1:I3 complex: SDS22 binding to PP1 loosens the active site metal to prime metal exchange” (The Journal of Biological Chemistry, 2023):

Columns and labels:
[1] = target: PP1alpha 7-330 (Homo sapiens) (UniProt P62136); assay: SPR; conditions: cited from earlier work
PP1α_(1-330) = target: T1, PP1α_(1-330) (UniProt P62136 1-330); assay: NMR titration; 2D [1H,15N] HSQC of 15N-labelled I3_(1-126) free and in complex; loss of cross-peaks on binding; 283 K, 20 mM Bis-Tris pH 6.8, 500 mM NaCl, 0.5 mM TCEP; conditions: both partners purified
T1 construct: Protein phosphatase 1 alpha catalytic subunit (PP1α), residues 1-330; also called Protein Phosphatase 1

[2] = target: T2, SDS22_(56-360):PP1α_(7-330) complex (UniProt Q15435 56-360; P62136 7-330); assay: SPR; His6-PP1 constructs or SDS22_(56-360):PP1α_(7-330) captured on a Ni-NTA chip (NiHC200M), I3 and variants injected; 25 °C; 20 mM Tris pH 8.0, 500 mM NaCl, 0.5 mM TCEP, 0.05% Tween-20; one-to-one one-state or two-state fit; conditions: both partners purified
T2 construct: SDS22 (PPP1R7), residues 56-360; Protein phosphatase 1 alpha catalytic subunit (PP1α), residues 7-330; PP1 in this complex lacks the M1 metal; The same complex treated with EDTA (M2 metal extracted) is kept as this molecule and told apart by assay a4; the His6 tag of SDS22 was cleaved, so it is probably His6-PP1; also called SDS22:PP1; SDS22:PP1_(M2-metal-free) / metal-free …
T2 sequence (Q15435 56-360, chain 1 of 2): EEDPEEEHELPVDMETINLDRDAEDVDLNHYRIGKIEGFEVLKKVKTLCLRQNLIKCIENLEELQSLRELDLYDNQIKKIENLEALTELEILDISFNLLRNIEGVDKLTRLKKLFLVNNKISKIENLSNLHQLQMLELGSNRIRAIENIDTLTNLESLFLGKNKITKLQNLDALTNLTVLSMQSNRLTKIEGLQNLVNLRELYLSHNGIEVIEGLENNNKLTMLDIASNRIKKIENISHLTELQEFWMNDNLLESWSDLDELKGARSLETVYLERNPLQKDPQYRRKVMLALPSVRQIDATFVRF
T2 sequence (P62136 7-330, chain 2 of 2): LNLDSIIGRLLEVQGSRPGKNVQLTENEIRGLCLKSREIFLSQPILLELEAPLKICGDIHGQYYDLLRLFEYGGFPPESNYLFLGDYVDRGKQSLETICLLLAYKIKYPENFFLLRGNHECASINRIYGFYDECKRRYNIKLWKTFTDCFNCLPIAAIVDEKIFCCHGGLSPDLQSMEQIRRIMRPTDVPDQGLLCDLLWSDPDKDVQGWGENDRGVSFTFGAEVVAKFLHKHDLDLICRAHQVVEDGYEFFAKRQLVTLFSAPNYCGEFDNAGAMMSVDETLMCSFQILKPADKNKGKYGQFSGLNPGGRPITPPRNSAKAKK

Chain of PP1alpha 7-330 (Homo sapiens) (P62136 7-330): as the sequence (P62136 7-330, chain 2 of 2) above
T1 sequence (P62136 whole entry, the tested form may be a part): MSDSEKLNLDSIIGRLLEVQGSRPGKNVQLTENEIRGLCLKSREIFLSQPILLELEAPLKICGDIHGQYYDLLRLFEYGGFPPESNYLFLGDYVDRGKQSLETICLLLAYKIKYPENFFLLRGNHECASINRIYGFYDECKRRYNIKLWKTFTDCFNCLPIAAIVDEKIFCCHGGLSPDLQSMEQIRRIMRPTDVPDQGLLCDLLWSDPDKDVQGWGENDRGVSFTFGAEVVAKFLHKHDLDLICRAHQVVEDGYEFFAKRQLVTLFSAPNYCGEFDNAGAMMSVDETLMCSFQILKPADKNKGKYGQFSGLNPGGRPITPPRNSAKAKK

binding result (PP1α_(1-330))	Kd [2] [nM]	Molecule	Kd [1] [nM]
–	–	I3 27-68 (from UniProt O60927)	10
–	–	I3 1-126 (from UniProt O60927)	10
binds	132 ± 5	Inhibitor-3 (I3), I3_(1-126) (natural protein, human, UniProt O60927 1-126, looked up, 15N-labelled in the NMR experiments, unlabelled in SPR; also called FL I3; PPP1R11; source: E. coli BL21 (DE3), purified (Ni-NTA, TEV, heat 95 °C, SEC); not shown: His6, N-terminal, cleaved; MBP, N-terminal, cleaved) MAEAGAGLSETVTETTVTVTTEPENRSLTIKLRKRKPEKKVEWTSDTVDNEHMGRRSSKCCCIYEKPRAFGESSTESDEEEEEGCGHTHCVRGHRKGRRRATLGPTPTTPPQPPDPSQPPPGPMQH	–
–	400 ± 44	I3_(1-126) C60S/C61S/C62S (natural protein, human, UniProt O60927 1-126, looked up, also called I3_(1-126) SSS; I3 SSS; source: E. coli BL21 (DE3), purified (Ni-NTA, TEV, heat 95 °C, SEC); not shown: His6, N-terminal, cleaved; MBP, N-terminal, cleaved) MAEAGAGLSETVTETTVTVTTEPENRSLTIKLRKRKPEKKVEWTSDTVDNEHMGRRSSKSSSIYEKPRAFGESSTESDEEEEEGCGHTHCVRGHRKGRRRATLGPTPTTPPQPPDPSQPPPGPMQH	–
